This data set concerns the molecule itself. In words: AUC; sedimentation velocity (SV-AUC); MetA at 10, 20 and 30 µM in 20 mM Tris-Cl pH 7.5, 150 mM NaCl; 40,000 rpm; absorbance at 280 nm; SEDFIT continuous c(s) distribution; monomer, dimer and tetramer peaks, populations unchanged at the three concentrations.

Where “and” joins values, the source holds several entries; their conditions need not be identical. Identical values can stand only once.

B1: homoserine acetyl transferase MetA (Rv3341) of Mycobacterium tuberculosis, recombinant histidine-tagged (enzyme)
chain: MTISDVPTQTLPAEGEIGLIDVGSLQLESGAVIDDVCIAVQRWGKLSPARDNVVVVLHALTGDSHITGPAGPGHPTPGWWDGVAGPGAPIDTTRWCAVATNVLGGCRGSTGPSSLARDGKPWGSRFPLISIRDQVQADVAALAALGITEVAAVVGGSMGGARALEWVVGYPDRVRAGLLLAVGARATADQIGTQTTQIAAIKADPDWQSGDYHETGRAPDAGLRLARRFAHLTYRGEIELDTRFANHNQGNEDPTAGGRYAVQSYLEHQGDKLLSRFDAGSYVILTEALNSHDVGRGRGGVSAALRACPVPVVVGGITSDRLYPLRLQQELADLLPGCAGLRVVESVYGHDGFLVETEAVGELIRQTLGLADREGACRR
notes: also called HSAT; (His)6-Rv3341
On to B1, for which the “stoichiometry N” value was 2 and 4.

(Values after paper doi:10.1101/2020.09.01.277368 (bioRxiv, 2020).)
